From article PMC7472637

Key:
Assay in all cases: in vivo oligomerization (SDS-PAGE of cell lysates ± DTT, anti-FLAG Western blot)
[1] = target: HapR, wild type, C-terminal FLAG-tagged (Vibrio cholerae)
[2] = target: HapR-R37E, C-terminal FLAG-tagged (Vibrio cholerae)
[3] = target: HapR-R37D, C-terminal FLAG-tagged (Vibrio cholerae)
[4] = target: HapR-R37A, C-terminal FLAG-tagged (Vibrio cholerae)
[5] = target: HapR-R37H, C-terminal FLAG-tagged (Vibrio cholerae)

In the case of “HapR, wild type, C-terminal FLAG-tagged (natural protein)”, the stoichiometry N [1] is reported as 2.
“HapR-R37E, C-terminal FLAG-tagged (natural protein)” showed a stoichiometry N [2] of 2.
“HapR-R37D, C-terminal FLAG-tagged (natural protein)” showed a stoichiometry N [3] of 2.
“HapR-R37A, C-terminal FLAG-tagged (natural protein)” gave a stoichiometry N [4] of 2.
Work on “HapR-R37H, C-terminal FLAG-tagged (natural protein)” yielded a stoichiometry N [5] of 2.
